Measurements: patent US20150344570A1 (published 2015)

Key:
[1] = biological target: T1, FcγRIIa H (human, UniProt P12318 34-217); test: SPR (Biacore); He/Con_2aH divided by He/Con_2b (FcγRIIa H versus FcγRIIb)
T1 construct: extracellular domain; also called FcgRIIa H; 2aH; not shown: His tag at the C terminus
T1 sequence (looked up): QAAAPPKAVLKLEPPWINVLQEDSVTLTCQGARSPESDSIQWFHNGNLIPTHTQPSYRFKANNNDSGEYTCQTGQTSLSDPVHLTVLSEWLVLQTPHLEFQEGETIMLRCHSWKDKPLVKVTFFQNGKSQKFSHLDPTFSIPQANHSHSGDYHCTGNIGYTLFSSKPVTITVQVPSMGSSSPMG
Description: (§1) The heterodimerized antibodies He Abs in which one of the H chains was introduced with an alteration were assayed for their binding activities to each activating FcγR and inhibitory FcγR according to the method described in Example 4. […] The activating FcγRs in FIGS. 26, 27, 28, and 29 are FcγRIa, FcγRIIa (R), FcγRIIa (H), and FcγRIIIa, respectively.
(§2) Analysis of interaction between objective antibody and the FcγR was carried out using Biacore T100 (GE Healthcare). HBS-EP+ (GE Healthcare) was used as the running buffer, and the measurement temperature was set to 25° C. Chips produced by immobilizing the antigen peptide by the amine coupling method to a Series S Sencor Chip CM5 (GE Healthcare), or alternatively, chips produced by allowing preliminarily biotinylated antigen peptides to interact with and immobilize onto a Series S Sensor Chip SA (certified) (GE Healthcare) were used. Antibodies of interest were captured onto an antigen peptide-immobilized chip, and allowed to interact to each FcγR diluted with running buffer. To regenerate and repeatedly use the chip, the antibodies captured on the chip were washed off by reacting 10 mM glycine-HCl, pH 1.5.

[2] = biological target: T1, FcγRIIa H; test: SPR (Biacore), FcγR passed over captured antibody; binding amount as % of control GpH7-A5/GpH7-B3/GpL16-k0 (=100)
Description: as §1, §2

[3] = biological target: T2, FcγRIIb (human, UniProt P31994 43-217); test: as above
T2 construct: extracellular domain; also called FcgRIIb; 2b; not shown: His tag at the C terminus
T2 sequence (looked up): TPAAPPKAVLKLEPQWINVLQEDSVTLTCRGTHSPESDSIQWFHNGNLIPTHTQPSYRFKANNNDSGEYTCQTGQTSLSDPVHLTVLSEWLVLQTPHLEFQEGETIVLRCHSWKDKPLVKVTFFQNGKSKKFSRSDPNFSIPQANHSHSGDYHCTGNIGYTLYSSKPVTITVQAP
Description: as §1, §2

B1: GpH7-A5/GpH7-B3 variant A327_04F/GpL16-k0 (antibody, human IgG1, kappa)
heavy 1: not shown
heavy 2: not shown
light: DIVMTQSPLSLPVTPGEPASISCQASESLVHSNRNTYLHWYLQKPGQSPQLLIYKVSNRFSGVPDRFSGSGSGTDFTLKISRVEAEDVGVYYCSQNTHVPPTFGQGTKVEIERTVAAPSVFIFPPSDEQLKSGTASVVCLLNNFYPREAKVQWKVDNALQSGNSQESVTEQDSKDSTYSLSSTLTLSKADYEKHKVYACEVTHQGLSSPVTKSFNRGEC
notes: He Ab: mutation in the GpH7-B3 H chain only
He_2aH/2b (IIaH/IIb) [1]: 1.32 ratio
He/Con_2aH [2]: 84.4 relative, control = 100
He/Con_2b [3]: 63.7 relative, control = 100

B2: GpH7-A5/GpH7-B3 variant E333_11K/GpL16-k0 (antibody, human IgG1, kappa)
heavy 1: not shown
heavy 2: not shown
light: DIVMTQSPLSLPVTPGEPASISCQASESLVHSNRNTYLHWYLQKPGQSPQLLIYKVSNRFSGVPDRFSGSGSGTDFTLKISRVEAEDVGVYYCSQNTHVPPTFGQGTKVEIERTVAAPSVFIFPPSDEQLKSGTASVVCLLNNFYPREAKVQWKVDNALQSGNSQESVTEQDSKDSTYSLSSTLTLSKADYEKHKVYACEVTHQGLSSPVTKSFNRGEC
notes: as for B1
He_2aH/2b (IIaH/IIb) [1]: 1.22 ratio
He/Con_2aH [2]: 98.1 relative, control = 100
He/Con_2b [3]: 80.6 relative, control = 100

B3: GpH7-A5/GpH7-B3 variant A330_14T/GpL16-k0 (antibody, human IgG1, kappa)
heavy 1: not shown
heavy 2: not shown
light: DIVMTQSPLSLPVTPGEPASISCQASESLVHSNRNTYLHWYLQKPGQSPQLLIYKVSNRFSGVPDRFSGSGSGTDFTLKISRVEAEDVGVYYCSQNTHVPPTFGQGTKVEIERTVAAPSVFIFPPSDEQLKSGTASVVCLLNNFYPREAKVQWKVDNALQSGNSQESVTEQDSKDSTYSLSSTLTLSKADYEKHKVYACEVTHQGLSSPVTKSFNRGEC
notes: as for B1
He_2aH/2b (IIaH/IIb) [1]: 1.21 ratio
He/Con_2aH [2]: 94.5 relative, control = 100
He/Con_2b [3]: 77.9 relative, control = 100

B4: GpH7-A5/GpH7-B3 variant A330_07I/GpL16-k0 (antibody, human IgG1, kappa)
heavy 1: not shown
heavy 2: not shown
light: DIVMTQSPLSLPVTPGEPASISCQASESLVHSNRNTYLHWYLQKPGQSPQLLIYKVSNRFSGVPDRFSGSGSGTDFTLKISRVEAEDVGVYYCSQNTHVPPTFGQGTKVEIERTVAAPSVFIFPPSDEQLKSGTASVVCLLNNFYPREAKVQWKVDNALQSGNSQESVTEQDSKDSTYSLSSTLTLSKADYEKHKVYACEVTHQGLSSPVTKSFNRGEC
notes: as for B1
He_2aH/2b (IIaH/IIb) [1]: 1.3 ratio
He/Con_2aH [2]: 87.3 relative, control = 100
He/Con_2b [3]: 67.1 relative, control = 100

B5: GpH7-A5/GpH7-B3 variant A327_19Q/GpL16-k0 (antibody, human IgG1, kappa)
heavy 1: not shown
heavy 2: not shown
light: DIVMTQSPLSLPVTPGEPASISCQASESLVHSNRNTYLHWYLQKPGQSPQLLIYKVSNRFSGVPDRFSGSGSGTDFTLKISRVEAEDVGVYYCSQNTHVPPTFGQGTKVEIERTVAAPSVFIFPPSDEQLKSGTASVVCLLNNFYPREAKVQWKVDNALQSGNSQESVTEQDSKDSTYSLSSTLTLSKADYEKHKVYACEVTHQGLSSPVTKSFNRGEC
notes: as for B1
He_2aH/2b (IIaH/IIb) [1]: 1.24 ratio
He/Con_2aH [2]: 67.3 relative, control = 100
He/Con_2b [3]: 54.2 relative, control = 100

B6: GpH7-A5/GpH7-B3 variant A330_03V/GpL16-k0 (antibody, human IgG1, kappa)
heavy 1: not shown
heavy 2: not shown
light: DIVMTQSPLSLPVTPGEPASISCQASESLVHSNRNTYLHWYLQKPGQSPQLLIYKVSNRFSGVPDRFSGSGSGTDFTLKISRVEAEDVGVYYCSQNTHVPPTFGQGTKVEIERTVAAPSVFIFPPSDEQLKSGTASVVCLLNNFYPREAKVQWKVDNALQSGNSQESVTEQDSKDSTYSLSSTLTLSKADYEKHKVYACEVTHQGLSSPVTKSFNRGEC
notes: as for B1
He_2aH/2b (IIaH/IIb) [1]: 1.52 ratio
He/Con_2aH [2]: 79.7 relative, control = 100
He/Con_2b [3]: 52.4 relative, control = 100

B7: GpH7-A5/GpH7-B3 variant A330_18N/GpL16-k0 (antibody, human IgG1, kappa)
heavy 1: not shown
heavy 2: not shown
light: DIVMTQSPLSLPVTPGEPASISCQASESLVHSNRNTYLHWYLQKPGQSPQLLIYKVSNRFSGVPDRFSGSGSGTDFTLKISRVEAEDVGVYYCSQNTHVPPTFGQGTKVEIERTVAAPSVFIFPPSDEQLKSGTASVVCLLNNFYPREAKVQWKVDNALQSGNSQESVTEQDSKDSTYSLSSTLTLSKADYEKHKVYACEVTHQGLSSPVTKSFNRGEC
notes: as for B1
He_2aH/2b (IIaH/IIb) [1]: 1.28 ratio
He/Con_2aH [2]: 81.6 relative, control = 100
He/Con_2b [3]: 63.7 relative, control = 100

B8: GpH7-A5/GpH7-B3 variant E333_18N/GpL16-k0 (antibody, human IgG1, kappa)
heavy 1: not shown
heavy 2: not shown
light: DIVMTQSPLSLPVTPGEPASISCQASESLVHSNRNTYLHWYLQKPGQSPQLLIYKVSNRFSGVPDRFSGSGSGTDFTLKISRVEAEDVGVYYCSQNTHVPPTFGQGTKVEIERTVAAPSVFIFPPSDEQLKSGTASVVCLLNNFYPREAKVQWKVDNALQSGNSQESVTEQDSKDSTYSLSSTLTLSKADYEKHKVYACEVTHQGLSSPVTKSFNRGEC
notes: as for B1
He_2aH/2b (IIaH/IIb) [1]: 1.26 ratio
He/Con_2aH [2]: 96.2 relative, control = 100
He/Con_2b [3]: 76.1 relative, control = 100

B9: GpH7-A5/GpH7-B3 variant I332_03V/GpL16-k0 (antibody, human IgG1, kappa)
heavy 1: not shown
heavy 2: not shown
light: DIVMTQSPLSLPVTPGEPASISCQASESLVHSNRNTYLHWYLQKPGQSPQLLIYKVSNRFSGVPDRFSGSGSGTDFTLKISRVEAEDVGVYYCSQNTHVPPTFGQGTKVEIERTVAAPSVFIFPPSDEQLKSGTASVVCLLNNFYPREAKVQWKVDNALQSGNSQESVTEQDSKDSTYSLSSTLTLSKADYEKHKVYACEVTHQGLSSPVTKSFNRGEC
notes: as for B1
He_2aH/2b (IIaH/IIb) [1]: 1.3 ratio
He/Con_2aH [2]: 105 relative, control = 100
He/Con_2b [3]: 80.7 relative, control = 100

B10: GpH7-A5/GpH7-B3 variant A327_06M/GpL16-k0 (antibody, human IgG1, kappa)
heavy 1: not shown
heavy 2: not shown
light: DIVMTQSPLSLPVTPGEPASISCQASESLVHSNRNTYLHWYLQKPGQSPQLLIYKVSNRFSGVPDRFSGSGSGTDFTLKISRVEAEDVGVYYCSQNTHVPPTFGQGTKVEIERTVAAPSVFIFPPSDEQLKSGTASVVCLLNNFYPREAKVQWKVDNALQSGNSQESVTEQDSKDSTYSLSSTLTLSKADYEKHKVYACEVTHQGLSSPVTKSFNRGEC
notes: as for B1
He_2aH/2b (IIaH/IIb) [1]: 1.27 ratio
He/Con_2aH [2]: 75.5 relative, control = 100
He/Con_2b [3]: 59.5 relative, control = 100

B11: GpH7-A5/GpH7-B3 variant E333_01G/GpL16-k0 (antibody, human IgG1, kappa)
heavy 1: not shown
heavy 2: not shown
light: DIVMTQSPLSLPVTPGEPASISCQASESLVHSNRNTYLHWYLQKPGQSPQLLIYKVSNRFSGVPDRFSGSGSGTDFTLKISRVEAEDVGVYYCSQNTHVPPTFGQGTKVEIERTVAAPSVFIFPPSDEQLKSGTASVVCLLNNFYPREAKVQWKVDNALQSGNSQESVTEQDSKDSTYSLSSTLTLSKADYEKHKVYACEVTHQGLSSPVTKSFNRGEC
notes: as for B1
He_2aH/2b (IIaH/IIb) [1]: 1.2 ratio
He/Con_2aH [2]: 97.7 relative, control = 100
He/Con_2b [3]: 81.4 relative, control = 100

B12: GpH7-A5/GpH7-B3 variant A330_13S/GpL16-k0 (antibody, human IgG1, kappa)
heavy 1: not shown
heavy 2: not shown
light: DIVMTQSPLSLPVTPGEPASISCQASESLVHSNRNTYLHWYLQKPGQSPQLLIYKVSNRFSGVPDRFSGSGSGTDFTLKISRVEAEDVGVYYCSQNTHVPPTFGQGTKVEIERTVAAPSVFIFPPSDEQLKSGTASVVCLLNNFYPREAKVQWKVDNALQSGNSQESVTEQDSKDSTYSLSSTLTLSKADYEKHKVYACEVTHQGLSSPVTKSFNRGEC
notes: as for B1
He_2aH/2b (IIaH/IIb) [1]: 1.58 ratio
He/Con_2aH [2]: 65.4 relative, control = 100
He/Con_2b [3]: 41.3 relative, control = 100

B13: GpH7-A5/GpH7-B3 variant A330_12R/GpL16-k0 (antibody, human IgG1, kappa)
heavy 1: not shown
heavy 2: not shown
light: DIVMTQSPLSLPVTPGEPASISCQASESLVHSNRNTYLHWYLQKPGQSPQLLIYKVSNRFSGVPDRFSGSGSGTDFTLKISRVEAEDVGVYYCSQNTHVPPTFGQGTKVEIERTVAAPSVFIFPPSDEQLKSGTASVVCLLNNFYPREAKVQWKVDNALQSGNSQESVTEQDSKDSTYSLSSTLTLSKADYEKHKVYACEVTHQGLSSPVTKSFNRGEC
notes: as for B1
He_2aH/2b (IIaH/IIb) [1]: 1.27 ratio
He/Con_2aH [2]: 108 relative, control = 100
He/Con_2b [3]: 84.8 relative, control = 100

B14: GpH7-A5/GpH7-B3 variant E333_13S/GpL16-k0 (antibody, human IgG1, kappa)
heavy 1: not shown
heavy 2: not shown
light: DIVMTQSPLSLPVTPGEPASISCQASESLVHSNRNTYLHWYLQKPGQSPQLLIYKVSNRFSGVPDRFSGSGSGTDFTLKISRVEAEDVGVYYCSQNTHVPPTFGQGTKVEIERTVAAPSVFIFPPSDEQLKSGTASVVCLLNNFYPREAKVQWKVDNALQSGNSQESVTEQDSKDSTYSLSSTLTLSKADYEKHKVYACEVTHQGLSSPVTKSFNRGEC
notes: as for B1
He_2aH/2b (IIaH/IIb) [1]: 1.23 ratio
He/Con_2aH [2]: 101 relative, control = 100
He/Con_2b [3]: 81.8 relative, control = 100

B15: GpH7-A5/GpH7-B3 variant A330_08L/GpL16-k0 (antibody, human IgG1, kappa)
heavy 1: not shown
heavy 2: not shown
light: DIVMTQSPLSLPVTPGEPASISCQASESLVHSNRNTYLHWYLQKPGQSPQLLIYKVSNRFSGVPDRFSGSGSGTDFTLKISRVEAEDVGVYYCSQNTHVPPTFGQGTKVEIERTVAAPSVFIFPPSDEQLKSGTASVVCLLNNFYPREAKVQWKVDNALQSGNSQESVTEQDSKDSTYSLSSTLTLSKADYEKHKVYACEVTHQGLSSPVTKSFNRGEC
notes: He Ab: A330L (EU numbering) in the GpH7-B3 H chain only; also called GpH7-A5/GpH7-B3-20-08L/GpL16-k0
He_2aH/2b (IIaH/IIb) [1]: 1.24 ratio
He/Con_2aH [2]: 87.6 relative, control = 100
He/Con_2b [3]: 70.5 relative, control = 100
